Test results: the supplement of paper PMC7877785
± gives the uncertainty stated by the source.

Assay: self-splicing fitness, log relative to wild type (ln ratio); higher = more splicing; Tetrahymena group I intron in knt gene, E. coli kanamycin selection, DiMSum; sequences stand for … in CUCUCU…GGAGGGAAAAGUUAUCAGGCAUGCACCUGGUAGCUAGUCUUUAAACCAAUAGAUUGCAUCGGUUUAAAAGGCAAGACCGUCAAAUUGCGGGAAAGGGGUCAACAGCCGUUCAGUACCAAGUCUCAGGGGAAACUUUGAGAUGGCCUUGCAAAGGGUAUGGUAAUAAGCUGACGGACAUGGUCCUAACCACGCAGCCAAGUCCUAAGUCAACAGAUCUUCUGUUGAUAUGGAUGCAGUUCACAGACUAAAUGUCGGUCGGGGAAGAUGUAUUCUUCUCAUAAGAUAUAGUCGGACCUCUCCUUAAUGGGAGCUAGCGGAUGAAGUGAUGCAACACUGGAGCCGCUGGGAACUAAUUUGUAUGCGAAAGUAUAUUGAUUAGUUUUGGAGUACUCGUGGUCG
Outline: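 Fitness was computed with DiMSum as the error-weighted combination of replicate fold changes, kanamycin versus none, each normalised to wild type. The library randomised all eight intron nucleotides of the P1ex region, with the intron placed in the knt kanamycin-resistance gene on pET-22b(+) in E. coli BL21(DE3). Six replicate transformations were grown overnight at 37°C or 30°C on LB agar with or without 25 μg/mL kanamycin, plus 100 μg/mL carbenicillin, 50 μM IPTG and 0.2% rhamnose. Pooled colonies were amplicon-sequenced on an Illumina HiSeq 2500.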

Sequence | self-splicing fitness (ln) (30 °C) | self-splicing fitness (ln) (37 °C)
ACUAAGCAAUAUUACGGGCC | -2.88 ± 0.2 | -1.73 ± 0.21
ACUAAGCAAUAUUACGGUGU | -3.49 ± 0.15 | -2.23 ± 0.12
ACUAAGCAAUAUUACGUAAU | -1.14 ± 0.073 | -0.739 ± 0.09
ACUAAGCAAUAUUACGUAUU | -2.09 ± 0.082 | -1.9 ± 0.11
ACUAAGCAAUAUUACGUGCC | -1.22 ± 0.13 | -0.754 ± 0.14
ACUAAGCAAUAUUACGUUAA | -2.77 ± 0.14 | -2.7 ± 0.18
ACUCAGCAAUAUUACGAAGG | -0.983 ± 0.1 | -1.19 ± 0.14
ACUCAGCAAUAUUACGACGG | -0.71 ± 0.072 | 0.0441 ± 0.12
ACUCAGCAAUAUUACGAGUA | -2.23 ± 0.12 | -1.1 ± 0.1
ACUCAGCAAUAUUACGAGUG | -1.59 ± 0.081 | -0.296 ± 0.11
ACUCAGCAAUAUUACGCAAG | -1.89 ± 0.11 | -0.159 ± 0.087
ACUCAGCAAUAUUACGCAGA | -3.11 ± 0.2 | -2.55 ± 0.22
ACUCAGCAAUAUUACGCCAU | -3.02 ± 0.17 | -2.28 ± 0.16
ACUCAGCAAUAUUACGCCGA | -3.36 ± 0.39 | -2.3 ± 0.28
ACUCAGCAAUAUUACGCGAU | -3.34 ± 0.16 | -2.18 ± 0.2
ACUCAGCAAUAUUACGCGUU | -1.91 ± 0.055 | -1.18 ± 0.072
ACUCAGCAAUAUUACGGAAA | -1.61 ± 0.14 | -1.5 ± 0.16
ACUCAGCAAUAUUACGGCAU | -0.665 ± 0.063 | -0.293 ± 0.067
ACUCAGCAAUAUUACGGCUC | -0.59 ± 0.09 | -0.761 ± 0.12
ACUCAGCAAUAUUACGGGCG | -0.574 ± 0.044 | 0.27 ± 0.062
ACUCAGCAAUAUUACGGUAU | -1.67 ± 0.057 | -0.522 ± 0.093
ACUCAGCAAUAUUACGUCUC | -1.8 ± 0.072 | -0.51 ± 0.083
ACUCAGCAAUAUUACGUGUA | -1.39 ± 0.1 | -0.266 ± 0.096
ACUCAGCAAUAUUACGUUAA | -2.35 ± 0.13 | -1.41 ± 0.12

Sequence | self-splicing fitness (ln) (30 °C) | self-splicing fitness (ln) (37 °C)
ACUCAGCAAUAUUACGUUCA | -1.36 ± 0.085 | -0.842 ± 0.11
ACUCAGCAAUAUUACGUUCC | -2.15 ± 0.22 | -0.606 ± 0.2
ACUCAGCAAUAUUACGUUCG | -0.678 ± 0.086 | -0.331 ± 0.11
ACUCAGCAAUAUUACGUUGA | -2.37 ± 0.15 | -0.607 ± 0.14
ACUGAGCAAUAUUACGAACA | -3.84 ± 0.47 | -2.59 ± 0.48
ACUGAGCAAUAUUACGAAUG | -3.69 ± 0.4 | -1.89 ± 0.22
ACUGAGCAAUAUUACGACAC | -3.62 ± 0.2 | -2.07 ± 0.24
ACUGAGCAAUAUUACGACCG | -1.3 ± 0.17 | -0.981 ± 0.23
ACUGAGCAAUAUUACGACGC | 0.0713 ± 0.15 | 0.648 ± 0.2
ACUGAGCAAUAUUACGAGAG | -3.31 ± 0.18 | -3.34 ± 0.32
ACUGAGCAAUAUUACGAGCA | -2.63 ± 0.27 | -1.42 ± 0.19
ACUGAGCAAUAUUACGAGUC | -3.18 ± 0.23 | -3.2 ± 0.28
ACUGAGCAAUAUUACGAUAA | -2.94 ± 0.26 | -2.75 ± 0.32
ACUGAGCAAUAUUACGAUAU | -4.44 ± 0.36 | -2.8 ± 0.2
ACUGAGCAAUAUUACGCACA | -2.37 ± 0.4 | -2.15 ± 0.29
ACUGAGCAAUAUUACGCAGA | -2.38 ± 0.14 | -1.25 ± 0.1
ACUGAGCAAUAUUACGCCAG | -2.93 ± 0.49 | -2.78 ± 0.47
ACUGAGCAAUAUUACGCCCA | -2.64 ± 0.43 | -2.15 ± 0.28
ACUGAGCAAUAUUACGCGAA | -3.01 ± 0.33 | -2.77 ± 0.36
ACUGAGCAAUAUUACGCGAG | -2.27 ± 0.1 | -1.11 ± 0.096
ACUGAGCAAUAUUACGCGCC | -2.73 ± 0.33 | –
ACUGAGCAAUAUUACGCUCC | -2.62 ± 0.45 | -1.18 ± 0.27
ACUGAGCAAUAUUACGCUGG | -3.54 ± 0.2 | -1.4 ± 0.2
ACUGAGCAAUAUUACGGAGG | -2.97 ± 0.18 | -2.76 ± 0.25

Sequence | self-splicing fitness (ln) (30 °C) | self-splicing fitness (ln) (37 °C)
ACUGAGCAAUAUUACGGCUC | – | -1.73 ± 0.48
ACUGAGCAAUAUUACGGGAG | -3.29 ± 0.2 | -2.74 ± 0.2
ACUGAGCAAUAUUACGGUAA | -2.81 ± 0.27 | -2.8 ± 0.34
ACUGAGCAAUAUUACGGUCC | – | -2.26 ± 0.33
ACUGAGCAAUAUUACGUACU | -2.16 ± 0.19 | -1.42 ± 0.19
ACUGAGCAAUAUUACGUGCC | -2.31 ± 0.23 | –
ACUGAGCAAUAUUACGUUCC | -3.65 ± 0.35 | -2.52 ± 0.24
ACUGAGCAAUAUUACGUUCG | -2.2 ± 0.15 | -0.355 ± 0.12
ACUGAGCAAUAUUACGUUGG | -4.04 ± 0.2 | -2.17 ± 0.18
ACUGAGCAAUAUUACGUUGU | -3.71 ± 0.26 | -1.53 ± 0.14
ACUGAGCAAUAUUACGUUUA | -2.52 ± 0.2 | -3.08 ± 0.24
ACUUAGCAAUAUUACGAAAA | -2.79 ± 0.26 | -2.01 ± 0.27
ACUUAGCAAUAUUACGACAU | -0.756 ± 0.012 | -0.251 ± 0.032
ACUUAGCAAUAUUACGACGC | -0.152 ± 0.066 | -0.0939 ± 0.072
ACUUAGCAAUAUUACGAGAG | -2.21 ± 0.12 | -0.741 ± 0.11
ACUUAGCAAUAUUACGAUAG | -2.71 ± 0.12 | -1.7 ± 0.16
ACUUAGCAAUAUUACGCAAA | -3.03 ± 0.41 | -1.24 ± 0.25
ACUUAGCAAUAUUACGCACA | -1.26 ± 0.12 | -1.02 ± 0.12
ACUUAGCAAUAUUACGCAGU | -3.83 ± 0.35 | -2.17 ± 0.21
ACUUAGCAAUAUUACGCGAG | -1.93 ± 0.15 | -1.76 ± 0.13
ACUUAGCAAUAUUACGCGGC | -2.71 ± 0.25 | -1.12 ± 0.23
ACUUAGCAAUAUUACGGAGU | -3.58 ± 0.47 | -3.1 ± 0.3
ACUUAGCAAUAUUACGGCGU | -0.204 ± 0.088 | 0.491 ± 0.13
ACUUAGCAAUAUUACGGCUA | -2.6 ± 0.2 | -0.214 ± 0.1

Sequence | self-splicing fitness (ln) (30 °C) | self-splicing fitness (ln) (37 °C)
ACUUAGCAAUAUUACGGGUA | -1.14 ± 0.11 | -1.54 ± 0.14
ACUUAGCAAUAUUACGGUAA | -2.66 ± 0.15 | -1.42 ± 0.14
ACUUAGCAAUAUUACGGUGG | -3.72 ± 0.3 | –
ACUUAGCAAUAUUACGUAUA | -3.22 ± 0.14 | -2.41 ± 0.16
ACUUAGCAAUAUUACGUAUG | -3.35 ± 0.22 | -2.2 ± 0.16
ACUUAGCAAUAUUACGUCGA | -2.06 ± 0.16 | -1.23 ± 0.16
ACUUAGCAAUAUUACGUGAA | -2.94 ± 0.15 | -1.5 ± 0.12
ACUUAGCAAUAUUACGUGCG | -1.29 ± 0.1 | 0.152 ± 0.15
ACUUAGCAAUAUUACGUUUU | -3.39 ± 0.12 | -1.93 ± 0.1
AGAAAGCAAUAUUACGAACA | -0.534 ± 0.16 | -0.288 ± 0.16
AGAAAGCAAUAUUACGAACU | -0.0259 ± 0.096 | 0.00874 ± 0.12
AGAAAGCAAUAUUACGAAGG | -3.59 ± 0.25 | -1.74 ± 0.2
AGAAAGCAAUAUUACGACAC | -0.194 ± 0.11 | -0.75 ± 0.13
AGAAAGCAAUAUUACGAGGC | -3.15 ± 0.42 | -2.66 ± 0.41
AGAAAGCAAUAUUACGAGGU | -3.59 ± 0.26 | -1.93 ± 0.23
AGAAAGCAAUAUUACGCAGG | -2.89 ± 0.15 | -1.4 ± 0.15
AGAAAGCAAUAUUACGCAUU | -2.49 ± 0.15 | -2.06 ± 0.22
AGAAAGCAAUAUUACGCCAU | -3.16 ± 0.2 | -2.21 ± 0.2
AGAAAGCAAUAUUACGCCGG | -1.43 ± 0.25 | -1.62 ± 0.24
AGAAAGCAAUAUUACGCCUG | -0.436 ± 0.11 | -0.62 ± 0.14
AGAAAGCAAUAUUACGCGCU | -0.789 ± 0.15 | -1.26 ± 0.2
AGAAAGCAAUAUUACGCGUA | -1.71 ± 0.1 | -0.388 ± 0.082
AGAAAGCAAUAUUACGGAAC | -3.04 ± 0.25 | -1.84 ± 0.29
AGAAAGCAAUAUUACGGCCA | -0.632 ± 0.096 | -0.181 ± 0.13
